Experimental data from PMC3828302.

Legend:
Assay in all cases: EMSA
Settings in all cases: 10 mM Tris-HCl pH 7.4, 50 mM KCl, 1 mM DTT, 100 mg/mL BSA (so in the source), 5 ng/mL poly[dI-dC], 200 uM c-di-GMP, 30 C 20 min; 5% native PAGE with 50 uM c-di-GMP …
[1] = molecular target: T1, MrkH-8xHis (Klebsiella pneumoniae AJ218) (UniProt G3FT00)
T1 sequence: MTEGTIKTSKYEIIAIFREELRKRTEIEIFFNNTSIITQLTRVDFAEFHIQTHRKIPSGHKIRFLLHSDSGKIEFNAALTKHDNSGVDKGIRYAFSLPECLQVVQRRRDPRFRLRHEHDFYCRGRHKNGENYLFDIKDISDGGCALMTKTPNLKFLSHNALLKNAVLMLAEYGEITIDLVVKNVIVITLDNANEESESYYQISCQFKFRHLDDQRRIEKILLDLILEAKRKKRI

[2] = molecular target: T2, MrkH 15AS16-8xHis internal_change (Klebsiella pneumoniae AJ218) (UniProt G3FT00)
T2 sequence: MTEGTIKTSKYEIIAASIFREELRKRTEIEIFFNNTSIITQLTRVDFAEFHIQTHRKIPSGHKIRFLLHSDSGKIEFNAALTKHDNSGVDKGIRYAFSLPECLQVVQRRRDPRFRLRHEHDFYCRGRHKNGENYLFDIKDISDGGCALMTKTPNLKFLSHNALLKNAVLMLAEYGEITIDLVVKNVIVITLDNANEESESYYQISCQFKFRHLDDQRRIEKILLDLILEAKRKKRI

[3] = molecular target: T3, MrkH 202AS203-8xHis internal_change (Klebsiella pneumoniae AJ218) (UniProt G3FT00)
T3 sequence: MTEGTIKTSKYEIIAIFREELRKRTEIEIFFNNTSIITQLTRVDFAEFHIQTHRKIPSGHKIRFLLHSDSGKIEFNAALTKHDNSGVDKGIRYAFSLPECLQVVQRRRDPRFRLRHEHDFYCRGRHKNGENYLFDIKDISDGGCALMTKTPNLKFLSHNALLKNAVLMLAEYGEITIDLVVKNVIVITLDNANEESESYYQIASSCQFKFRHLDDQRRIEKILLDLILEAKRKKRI

[4] = molecular target: T4, MrkH 217AS218-8xHis internal_change (Klebsiella pneumoniae AJ218) (UniProt G3FT00)
T4 sequence: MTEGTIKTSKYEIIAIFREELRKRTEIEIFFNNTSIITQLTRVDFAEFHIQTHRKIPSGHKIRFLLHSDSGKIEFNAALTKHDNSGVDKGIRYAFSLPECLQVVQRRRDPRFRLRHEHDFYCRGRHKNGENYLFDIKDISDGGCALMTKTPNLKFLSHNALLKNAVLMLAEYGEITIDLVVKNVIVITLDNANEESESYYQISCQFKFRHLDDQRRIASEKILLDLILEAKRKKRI

[5] = molecular target: T5, MrkH 39AS40-8xHis internal_change (Klebsiella pneumoniae AJ218) (UniProt G3FT00)
T5 sequence: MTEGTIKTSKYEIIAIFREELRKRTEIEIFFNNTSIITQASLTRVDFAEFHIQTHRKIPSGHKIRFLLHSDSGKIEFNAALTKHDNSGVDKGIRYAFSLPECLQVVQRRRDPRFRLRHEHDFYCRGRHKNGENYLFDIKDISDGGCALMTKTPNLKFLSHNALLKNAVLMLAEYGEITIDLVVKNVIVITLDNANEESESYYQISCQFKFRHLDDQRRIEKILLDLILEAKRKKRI

Sequence: GCTGTTGCGGTCACTTTCTCTCGCTCTGGCGTTAGGCTTGCTGCGCTGTAAACAACCACCCTCGCGTTTTCATCTAAGAATGACTGTTTATTAATAGTCGATGGTTATCTGTTATATAACTTAATGAAACGTGAACAAATGTATATTTGTCGGCGAATAAATAGCATTCTTTGACGCCGATAGCACCAGCGAACTTATATTTTTAGGTTCGTTACCTGACGCCTTAAATATTGCGGCTCCCGGTCAGTCGAAGATTCTATTAGCAGTGGC (double strand) [mrkA fragment, MrkH box mut-6]
- binding [1]: binds more weakly

Sequence: GCTGTTGCGGTCACTTTCTCTCGCTCTGGCGTTAGGCTTGCTGCGCTGTAAACAACCACCCTCGCGTTTTCATCTATCAATGACTGTTGCAGCATAGTCGATGGTTATCTGTTATATAACTTAATGAAACGTGAACAAATGTATATTTGTCGGCGAATAAATAGCATTCTTTGACGCCGATAGCACCAGCGAACTTATATTTTTAGGTTCGTTACCTGACGCCTTAAATATTGCGGCTCCCGGTCAGTCGAAGATTCTATTAGCAGTGGC (double strand) [mrkA fragment, UP mutation]
- binding [1]: binds

Sequence: GCTGTTGCGGTCACTTTCTCTCGCTCTGGCGTTAGGCTTGCTGCGCTGTAAACAACCACCCTCGCGTTTTCATCTATCAATGACTGTTTATTAATAGTCGATGGTTATCTGTTATATAACTTAATGAAACGTGAACAAATGTATATTTGTCGGCGAATAAATAGCATTCTTTGACGCCGATAGCACCAGCGAACTTATATTTTTAGGTTCGTTACCTGACGCCTTAAATATTGCGGCTCCCGGTCAGTCGAAGATTCTATTAGCAGTGGC (double strand) [mrkA promoter fragment, wild type]
- binding [2]: binds
- binding [3]: no binding
- binding [4]: no binding
- binding [5]: binds
- binding [1]: binds

Sequence: GCTGTTGCGGTCACTTTCTCTCGCTCTGGCGTTAGGCTTGCTGCGCTGTAAACAACCACCCTCGCGTTTTCATCTCCCAATGACTGTTTATTAATAGTCGATGGTTATCTGTTATATAACTTAATGAAACGTGAACAAATGTATATTTGTCGGCGAATAAATAGCATTCTTTGACGCCGATAGCACCAGCGAACTTATATTTTTAGGTTCGTTACCTGACGCCTTAAATATTGCGGCTCCCGGTCAGTCGAAGATTCTATTAGCAGTGGC (double strand) [mrkA fragment, MrkH box mut-5]
- binding [1]: binds more weakly
